Data: US20150064134A1

Target: Tie2(R849W)(h) (human) (UniProt Q02763)
Assay: cell-based or functional assay

Tie2(R849W)(h) (human), sequence (Q02763 771-1124 R849W limits assumed): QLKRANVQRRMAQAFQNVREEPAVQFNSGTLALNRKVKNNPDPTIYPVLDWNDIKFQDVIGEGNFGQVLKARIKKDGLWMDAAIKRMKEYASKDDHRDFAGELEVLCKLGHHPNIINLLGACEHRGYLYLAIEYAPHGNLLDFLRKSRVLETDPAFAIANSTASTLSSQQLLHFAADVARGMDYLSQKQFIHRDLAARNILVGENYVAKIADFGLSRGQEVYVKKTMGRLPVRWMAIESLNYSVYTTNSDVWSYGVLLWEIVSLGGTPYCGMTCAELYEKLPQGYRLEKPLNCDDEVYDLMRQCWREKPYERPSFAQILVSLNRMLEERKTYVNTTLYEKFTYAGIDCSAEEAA

MMI-0400 (peptide) was tested, and the % activity at 100 µM was 108%.
